# Assay results as given in paper PMC9915769, “A novel binding site on the cryptic intervening domain is a motif-dependent regulator of O-GlcNAc transferase” (Research Square, 2023).
# Non-standard residues stand in square brackets, D forms with d. No end group written: not given here. pY = N[C@@H](Cc1ccc(OP(=O)(O)O)cc1)C(=O)O
# B1: fluorescently labeled 5-FAM-SMG9 peptide (peptide, UniProt Q9H0W8 140-155, looked up)
# peptide: QRPTQPVYQIQNRGMG
# modifications: not fully specified (N-terminus); also: 5-FAM label, position not given here
# notes: SMG9, human, 16-mer peptide with the PxYx[I/L] motif, residues 140-155 as stated for the SMG9 peptide; The limits 140-155 are printed for the SMG9 peptide of the crystal; the labelled peptide bears the same name; also called fluorescent SMG9 peptide; source: synthetic peptide (solid phase peptide synthesis, Ontores)
# Experiments:
# OGT I787E = assay: Saturation FP binding assay, OGT mutant I787E; design: species or system Human; conditions: 5-FAM-SMG9 0.4 μM stock mixed 1:1, TBS pH 8.0, n=3
# Description: (§1) To confirm the SMG9 peptide binding mode in our crystal structure, we mutated each of the two primary binding features: the hydrophobic pocket (F723, I734, and I787) and the bidentate donor N791, and measured their changes in binding affinity for SMG9 peptide. Each of the hydrophobic OGT residues were mutated to a glutamate or arginine, while the asparagine bidentate interaction was disrupted by mutation to alanine. Each mutated OGT construct was recombinantly expressed in E coli and purified at high concentration for FP saturation binding assays with fluorescent SMG9 peptide. Insertion of charged residues into the hydrophobic pocket (F723E, I734R, I787E, and I787R) as well as disruption of the bidentate backbone interaction (N791 A) each shifted EC50 values by >10-fold (Fig. 2d, Extended data Fig. 3a), showing that these mutations substantially disrupt SMG9 peptide binding.
# (§2) All FP measurements were carried out in black small volume 384-well plates (Greiner Bio-One). For saturation binding assays, 2-fold serial dilutions of recombinantly purified OGT were prepared in TBS (150 mM NaCl, 20 mM Tris-HCl, pH 8.0). 5-FAM-SMG9 fluorescent peptide at 0.4 μM in TBS was added in equal volume to the OGT dilution series. […] After 20 min incubation in the dark at room temperature, FP was read on a BMG PheraStar multimode plate reader equipt with 488, 520, 520 FP filter cube (BMG Labtech).
# OGT I787R = assay: Saturation FP binding assay, OGT mutant I787R; design: species or system Human; conditions: 5-FAM-SMG9 0.4 μM stock mixed 1:1, TBS pH 8.0, n=3
# Description: as §1, §2
# OGT F723E = assay: Saturation FP binding assay, OGT mutant F723E; design: species or system Human; conditions: 5-FAM-SMG9 0.4 μM stock mixed 1:1, TBS pH 8.0, n=3
# Description: as §1, §2
# OGT N791A = assay: Saturation FP binding assay, OGT mutant N791A; design: species or system Human; conditions: 5-FAM-SMG9 0.4 μM stock mixed 1:1, TBS pH 8.0, n=3
# Description: as §1, §2
# OGT I734R = assay: Saturation FP binding assay, OGT mutant I734R; design: species or system Human; conditions: 5-FAM-SMG9 0.4 μM stock mixed 1:1, TBS pH 8.0, n=3
# Description: as §1, §2
# [1] = target: fluorescently labeled 5-FAM-SMG9 peptide (human) (UniProt Q9H0W8); assay: fluorescence polarisation; saturation: 2-fold serial dilutions of OGT (WT or mutant) plus equal volume of 0.4 uM 5-FAM-SMG9; TBS (150 mM NaCl, 20 mM Tris-HCl, pH 8.0); 20 min, room temperature
# OGT = target: T1, OGT (Homo sapiens, UniProt O15294); assay: Competitive fluorescence polarization (FP) binding assay with 5-FAM-SMG9 peptide; conditions: FP competition with 5-FAM-SMG9 for OGT binding, TBS pH 8.0, n=3
# T1 construct: two OGT constructs, full-length OGT (OGT) and the protein crystallization construct OGT4.5; His6 (N); made in house; host or cells: E. coli BL21(DE3)
# T1 sequence (O15294 1-1046): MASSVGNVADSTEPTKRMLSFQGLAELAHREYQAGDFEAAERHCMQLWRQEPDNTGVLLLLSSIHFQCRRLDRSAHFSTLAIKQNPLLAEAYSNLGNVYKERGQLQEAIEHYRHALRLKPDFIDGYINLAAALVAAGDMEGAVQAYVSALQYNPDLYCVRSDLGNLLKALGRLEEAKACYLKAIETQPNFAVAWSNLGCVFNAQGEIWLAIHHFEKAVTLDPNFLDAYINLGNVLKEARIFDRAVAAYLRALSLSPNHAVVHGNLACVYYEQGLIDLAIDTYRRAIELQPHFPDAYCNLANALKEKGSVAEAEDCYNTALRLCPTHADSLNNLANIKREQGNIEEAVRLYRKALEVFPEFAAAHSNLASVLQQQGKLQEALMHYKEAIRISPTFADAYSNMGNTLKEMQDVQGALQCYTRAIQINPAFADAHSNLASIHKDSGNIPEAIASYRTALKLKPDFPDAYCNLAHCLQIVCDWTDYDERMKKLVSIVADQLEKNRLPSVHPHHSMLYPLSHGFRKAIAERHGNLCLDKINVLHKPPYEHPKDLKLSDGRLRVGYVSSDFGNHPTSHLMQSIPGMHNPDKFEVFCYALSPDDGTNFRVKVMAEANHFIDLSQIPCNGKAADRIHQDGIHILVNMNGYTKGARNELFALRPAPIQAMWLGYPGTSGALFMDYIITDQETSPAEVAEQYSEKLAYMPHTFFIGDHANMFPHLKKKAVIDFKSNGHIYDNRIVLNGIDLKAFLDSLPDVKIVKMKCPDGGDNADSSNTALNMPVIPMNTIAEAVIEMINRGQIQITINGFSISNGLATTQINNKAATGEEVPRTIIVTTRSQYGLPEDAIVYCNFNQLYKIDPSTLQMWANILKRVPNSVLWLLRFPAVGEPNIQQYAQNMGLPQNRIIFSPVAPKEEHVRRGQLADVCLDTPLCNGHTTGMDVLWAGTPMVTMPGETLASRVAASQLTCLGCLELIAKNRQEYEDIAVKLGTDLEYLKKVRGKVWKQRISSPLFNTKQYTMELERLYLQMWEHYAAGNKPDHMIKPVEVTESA
# Method: All FP measurements were carried out in black small volume 384-well plates (Greiner Bio-One). For saturation binding assays, 2-fold serial dilutions of recombinantly purified OGT were prepared in TBS (150 mM NaCl, 20 mM Tris-HCl, pH 8.0). 5-FAM-SMG9 fluorescent peptide at 0.4 μM in TBS was added in equal volume to the OGT dilution series. For competition binding assays, 2-fold serial dilutions of unlabeled peptide were prepared in TBS. An equal volume of 20 μM OGT with 0.4 μM 5-FAM-SMG9 in TBS was added to the dilution series. After 20 min incubation in the dark at room temperature, FP was read on a BMG PheraStar multimode plate reader equipt with 488, 520, 520 FP filter cube (BMG Labtech).
# [2] = target: T2, full-length O-GlcNAc transferase (OGT), recombinant (human, UniProt O15294-3 1-1036); assay: MST
# T2 chain: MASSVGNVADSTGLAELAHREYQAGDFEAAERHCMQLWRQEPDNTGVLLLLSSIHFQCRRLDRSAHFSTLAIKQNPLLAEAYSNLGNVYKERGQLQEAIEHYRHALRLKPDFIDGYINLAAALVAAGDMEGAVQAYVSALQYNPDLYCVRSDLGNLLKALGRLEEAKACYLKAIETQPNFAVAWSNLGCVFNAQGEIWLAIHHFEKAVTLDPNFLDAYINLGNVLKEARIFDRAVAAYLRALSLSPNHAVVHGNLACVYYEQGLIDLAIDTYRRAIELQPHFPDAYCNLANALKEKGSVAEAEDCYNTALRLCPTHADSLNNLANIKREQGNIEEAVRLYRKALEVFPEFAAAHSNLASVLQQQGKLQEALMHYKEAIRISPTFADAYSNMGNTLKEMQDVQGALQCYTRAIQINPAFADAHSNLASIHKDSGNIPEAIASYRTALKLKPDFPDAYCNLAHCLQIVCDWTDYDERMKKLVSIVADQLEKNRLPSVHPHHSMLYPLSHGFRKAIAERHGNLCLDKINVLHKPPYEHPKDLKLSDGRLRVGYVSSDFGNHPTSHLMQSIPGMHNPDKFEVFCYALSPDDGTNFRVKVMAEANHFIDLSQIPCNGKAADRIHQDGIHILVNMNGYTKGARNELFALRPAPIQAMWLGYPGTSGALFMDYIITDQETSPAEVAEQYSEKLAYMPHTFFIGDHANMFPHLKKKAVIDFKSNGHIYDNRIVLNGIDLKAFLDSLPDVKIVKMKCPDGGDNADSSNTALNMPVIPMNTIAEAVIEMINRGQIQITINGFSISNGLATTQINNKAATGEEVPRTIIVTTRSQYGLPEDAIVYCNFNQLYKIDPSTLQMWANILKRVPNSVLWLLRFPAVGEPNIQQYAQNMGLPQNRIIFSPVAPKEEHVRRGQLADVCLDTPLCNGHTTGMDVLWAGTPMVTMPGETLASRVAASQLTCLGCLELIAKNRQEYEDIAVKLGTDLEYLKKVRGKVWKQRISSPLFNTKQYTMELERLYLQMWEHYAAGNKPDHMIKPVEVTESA
molecule,measurement,setting,value
"5-FAM-SMG9 peptide: fluorescently labeled 5-FAM SMG9 peptide, probe for MST and FP assays (QRPTQPVYQIQNRGMG; not fully specified (N-terminus); also: 5-FAM label, position not given here)",fold shift in EC50 relative to wild-type OGT,OGT I787E,> 10 fold
same,fold shift in EC50 relative to wild-type OGT,OGT I787R,> 10 fold
same,fold shift in EC50 relative to wild-type OGT,OGT F723E,> 10 fold
same,fold shift in EC50 relative to wild-type OGT,OGT N791A,> 10 fold
same,fold shift in EC50 relative to wild-type OGT,OGT I734R,> 10 fold
"OGT F723E, recombinant (enzyme)",fold shift in EC50 against wild-type OGT,[1],> 10 fold
"OGT I734R, recombinant (enzyme)",fold shift in EC50 against wild-type OGT,[1],> 10 fold
"OGT I787E, recombinant (from UniProt O15294-3 1-1036) (enzyme)",fold shift in EC50 against wild-type OGT,[1],> 10 fold
"OGT I787R, recombinant (from UniProt O15294-3 1-1036) (enzyme)",fold shift in EC50 against wild-type OGT,[1],> 10 fold
"OGT N791A, recombinant (enzyme)",fold shift in EC50 against wild-type OGT,[1],> 10 fold
SMG9 Y147F: SMG9 peptide with Y147F mutation (QRPTQPVFQIQNRGMG),fold shift in EC50 relative to WT SMG9 peptide,OGT,> 10 fold
SMG9 pY147: phosphorylated SMG9 peptide (pY147) (QRPTQPV[pY]QIQNRGMG),peptide binding to OGT (FP competition),OGT,significantly disrupted peptide binding
B1,Kd,[2],13.1 µM
